Test results from publication PMC3024764 (The Journal of Biological Chemistry, 2010).

Biological target: Pim-1 kinase (SPR analysis) (UniProt P11309 1-313)
Assay: SPR

Chain of Pim-1 kinase (SPR analysis) (P11309 whole entry): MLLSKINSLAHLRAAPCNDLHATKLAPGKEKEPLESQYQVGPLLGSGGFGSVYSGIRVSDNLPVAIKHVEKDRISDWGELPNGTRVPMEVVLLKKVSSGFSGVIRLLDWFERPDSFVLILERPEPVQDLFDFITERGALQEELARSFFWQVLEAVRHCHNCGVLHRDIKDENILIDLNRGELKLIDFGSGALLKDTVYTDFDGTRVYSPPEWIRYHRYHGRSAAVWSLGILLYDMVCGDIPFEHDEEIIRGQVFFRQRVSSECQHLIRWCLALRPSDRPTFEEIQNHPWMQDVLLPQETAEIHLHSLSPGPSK

RRRRRRRRKKPGLDRDQT [R8-T198mu peptide]
Kd: 4.25 µM
